Laboratory results taken from patent US20200231691A1 (Hoffmann-La Roche, published 2020).

Tests used:
[1] = molecular target: T1, murine FAP (murine, UniProt P97321 1-761); assay: flow cytometry on CT26muFAP cells, which stably express murine FAP
T1 construct: whole, on cells; CT26muFAP served as the muEpCAM-negative specificity control cell line; also called muFAP; CT26muFAP cells
T1 sequence (looked up): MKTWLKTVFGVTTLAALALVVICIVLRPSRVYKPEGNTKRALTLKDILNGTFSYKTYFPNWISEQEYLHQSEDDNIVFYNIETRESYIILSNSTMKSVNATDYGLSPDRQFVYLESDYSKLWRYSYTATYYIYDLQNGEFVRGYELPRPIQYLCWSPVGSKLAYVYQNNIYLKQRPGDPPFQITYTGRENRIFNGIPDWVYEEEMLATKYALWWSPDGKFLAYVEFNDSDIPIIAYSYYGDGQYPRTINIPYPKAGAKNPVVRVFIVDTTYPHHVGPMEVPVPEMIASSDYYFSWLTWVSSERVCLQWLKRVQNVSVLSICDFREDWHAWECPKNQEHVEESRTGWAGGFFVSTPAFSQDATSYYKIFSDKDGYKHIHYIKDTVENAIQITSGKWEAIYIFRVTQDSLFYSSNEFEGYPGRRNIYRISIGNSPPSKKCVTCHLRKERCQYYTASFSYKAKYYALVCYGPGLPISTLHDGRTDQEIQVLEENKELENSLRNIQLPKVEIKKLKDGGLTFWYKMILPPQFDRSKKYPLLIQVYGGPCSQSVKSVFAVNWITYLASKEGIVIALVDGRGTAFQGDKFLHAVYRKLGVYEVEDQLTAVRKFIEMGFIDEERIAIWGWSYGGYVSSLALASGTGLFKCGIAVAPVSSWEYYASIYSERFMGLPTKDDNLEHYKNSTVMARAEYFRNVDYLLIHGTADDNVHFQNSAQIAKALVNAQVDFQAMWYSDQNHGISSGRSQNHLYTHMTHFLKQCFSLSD
Method: (§1) The binding to cell surface murine EpCAM was analysed using mouse EpCAM-positive CT26muEpCAM c125 cells, which stably expresses murine EpCAM. The specificity of binding was analysed by determination of binding to muEpCAM-negative cell line CT26muFAP, which stably expresses murine FAP.
(§2) For analysis of binding of the antigen binding molecules, 0.5×10⁵ CT26muEpCAM or 0.5×10⁵ CT26muFAP cells were added to wells of round-bottomed suspension cell 96-well plates (greiner bio-one, cellstar, Cat. No. 650185). For discrimination of live and dead cells, samples were stained with Zombie Aqua Viability Dye (Biolegend, Cat. No 423102) in PBS for 10 minutes at room temperature. Cells were then washed once with FACS buffer and subsequently stained for 90 minutes at 4° C. in the dark in 50 μL/well 4° C.
(§3) Plates were finally resuspended in 85 μL/well FACS-buffer and acquired the same day using 4-laser LSR-II cytometer (BD Bioscience with DIVA software).

[2] = molecular target: T2, murine OX40 (murine, UniProt P47741 20-272); assay: flow cytometry, activated murine OX40+ CD8+ T cells
T2 construct: also called muOX40
T2 sequence: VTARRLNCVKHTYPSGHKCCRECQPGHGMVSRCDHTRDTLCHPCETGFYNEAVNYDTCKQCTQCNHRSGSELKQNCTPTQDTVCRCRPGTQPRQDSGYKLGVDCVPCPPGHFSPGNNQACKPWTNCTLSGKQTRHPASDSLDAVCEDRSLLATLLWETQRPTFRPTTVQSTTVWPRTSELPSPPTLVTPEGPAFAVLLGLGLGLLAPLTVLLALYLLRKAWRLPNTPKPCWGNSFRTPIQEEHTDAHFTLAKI
Method: (§4) For labeling cells were harvested, washed with pre-warmed (37° C.) DPBS and adjusted to a cell density of 1×10⁷ cells/mL in DPBS. eFluor670 cell proliferation dye (eBioscience, Cat.-No. 65-0840-85) was added to the suspension of naïve splenocytes at a final concentration of 2.5 μM and a final cell density of 0.5×10⁷ cells/mL in DPBS. Cells were then incubated for 10 min at room temperature in the dark. To stop labeling reaction, 4 mL heat inactivated FBS were added and cells were washed three times with T cell medium. A mixture of 1×10⁵ resting eFluor670 labeled splenocytes and 1×10⁵ unlabeled activated splenocytes were then added to wells of round-bottomed suspension 96-well plates (Greiner bio-one, cellstar, Cat. No. 650185).
(§5) For discrimination between live and dead cells, samples were stained with Zombie Aqua Viability Dye (Biolegend, Cat. No. 423102) in DPBS for 10 minutes at room temperature. Cells were then washed once with FACS buffer and subsequently stained for 90 minutes at 4° C. in the dark in 50 μL/well 4° C. […] After washing three times with excess FACS buffer, cells were stained for 30 minutes at 4° C. in the dark in 25 μL/well 4° C.
(§6) Plates were finally resuspended in 85 μL/well FACS buffer and acquired the same day using 4-laser LSR-II cytometer (BD Bioscience with DIVA software).

[3] = molecular target: T2, murine OX40; assay: flow cytometry, activated murine OX40+ CD4+ T cells
Method: as §4, §5, §6

[4] = molecular target: T3, murine EpCAM (murine, UniProt Q99JW5 24-315); assay: flow cytometry, muEpCAM+ CT26muEpCAM cells
T3 construct: Stably expressed on CT26muEpCAM cl25 cells; also called muEpCAM; CT26muEpCAM cells
T3 sequence: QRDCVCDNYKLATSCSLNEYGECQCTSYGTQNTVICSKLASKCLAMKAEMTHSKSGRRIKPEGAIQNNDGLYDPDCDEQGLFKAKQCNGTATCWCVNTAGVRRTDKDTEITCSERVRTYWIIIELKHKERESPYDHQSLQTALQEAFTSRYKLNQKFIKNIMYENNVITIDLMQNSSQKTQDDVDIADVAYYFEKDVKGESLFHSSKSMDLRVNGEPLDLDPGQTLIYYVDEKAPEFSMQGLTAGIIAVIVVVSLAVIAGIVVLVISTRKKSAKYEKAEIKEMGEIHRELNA
Method: as §1, §2, §3

binding result [1]: no binding | EC50 [2]: 0.82 nM | EC50 [3]: 1.47 nM | EC50 [4]: 82.5 nM
B1: bispecific, tetravalent anti-murine OX40, monovalent anti-murine EpCAM 4+1 molecule (muOX40 OX86/muEpCAM G8.8 DAPG 4+1) (bispecific antibody, mouse IgG1, kappa)
heavy 1: QVQLKESGPGLVQPSQTLSLTCTVSGFSLTGYNLHWVRQPPGKGLEWMGRMRYDGDTYYNSVLKSRLSISRDTSKNQVFLKMNSLQTDDTAIYYCTRDGRGDSFDYWGQGVMVTVSSAKTTPPSVYPLAPGSAAQTNSMVTLGCLVKGYFPEPVTVTWNSGSLSSGVHTFPAVLQSDLYTLSSSVTVPSSTWPSQTVTCNVAHPASSTKVDKKIVPRDCGGGGSGGGGSQVQLKESGPGLVQPSQTLSLTCTVSGFSLTGYNLHWVRQPPGKGLEWMGRMRYDGDTYYNSVLKSRLSISRDTSKNQVFLKMNSLQTDDTAIYYCTRDGRGDSFDYWGQGVMVTVSSAKTTPPSVYPLAPGSAAQTNSMVTLGCLVKGYFPEPVTVTWNSGSLSSGVHTFPAVLQSDLYTLSSSVTVPSSTWPSQTVTCNVAHPASSTKVDKKIVPRDCGCKPCICTVPEVSSVFIFPPKPKDVLTITLTPKVTCVVVAISKDDPEVQFSWFVDDVEVHTAQTKPREEQINSTFRSVSELPIMHQDWLNGKEFKCRVNSAAFGAPIEKTISKTKGRPKAPQVYTIPPPKEQMAKDKVSLTCMITNFFPEDITVEWQWNGQPAENYDNTQPIMDTDGSYFVYSDLNVQKSNWEAGNTFTCSVLHEGLHNHHTEKSLSHSPGGGGGSGGGGSGGGGSGGGGSDIQMTQSPASLSASLGETVSIECLASEGISNDLAWYQQKSGKSPQLLIYATSRLQDGVPSRFSGSGSGTRYSLKISGMQPEDEADYFCQQSYKYPWTFGGGTKLELK
heavy 2: QVQLKESGPGLVQPSQTLSLTCTVSGFSLTGYNLHWVRQPPGKGLEWMGRMRYDGDTYYNSVLKSRLSISRDTSKNQVFLKMNSLQTDDTAIYYCTRDGRGDSFDYWGQGVMVTVSSAKTTPPSVYPLAPGSAAQTNSMVTLGCLVKGYFPEPVTVTWNSGSLSSGVHTFPAVLQSDLYTLSSSVTVPSSTWPSQTVTCNVAHPASSTKVDKKIVPRDCGGGGSGGGGSQVQLKESGPGLVQPSQTLSLTCTVSGFSLTGYNLHWVRQPPGKGLEWMGRMRYDGDTYYNSVLKSRLSISRDTSKNQVFLKMNSLQTDDTAIYYCTRDGRGDSFDYWGQGVMVTVSSAKTTPPSVYPLAPGSAAQTNSMVTLGCLVKGYFPEPVTVTWNSGSLSSGVHTFPAVLQSDLYTLSSSVTVPSSTWPSQTVTCNVAHPASSTKVDKKIVPRDCGCKPCICTVPEVSSVFIFPPKPKDVLTITLTPKVTCVVVAISKDDPEVQFSWFVDDVEVHTAQTKPREEQINSTFRSVSELPIMHQDWLNGKEFKCRVNSAAFGAPIEKTISKTKGRPKAPQVYTIPPPKKQMAKDKVSLTCMITNFFPEDITVEWQWNGQPAENYKNTQPIMKTDGSYFVYSKLNVQKSNWEAGNTFTCSVLHEGLHNHHTEKSLSHSPGGGGGSGGGGSGGGGSGGGGSEVQLAESGGGLVQPGRSMKLSCAASGFTFSNFPMAWVRQAPTKGLEWVATISTSGGSTYYRDSVKGRFTISRDNAKSTLYLQMNSLRSEDTATYYCTRTLYILRVFYFDYWGQGVMVTVSS
light: DIVMTQGALPNPVPSGESASITCRSSQSLVYKDGQTYLNWFLQRPGQSPQLLTYWMSTRASGVSDRFSGSGSGTYFTLKISRVRAEDAGVYYCQQVREYPFTFGSGTKLEIKRADAAPTVSIFPPSSEQLTSGGASVVCFLNNFYPKDINVKWKIDGSERQNGVLNSWTDQDSKDSTYSMSSTLTLTKDEYERHNSYTCEATHKTSTSPIVKSFNRNEC
notes: muIgG1 DAPG with DDKK heterodimerisation; also called 4+1 muEpCAM; 4 + 1 anti-muOX40, anti-muEpCAM
